Each block holds one binder with its values, some of them ahead of it.
Tests used:
His-SET8 = molecular target: T1, His-SET8 (UniProt Q9NQR1-2 1-352); assay: EMSA; 2 mM MgCl2; GRB buffer: 20 mM HEPES pH 7.5, 10% glycerol, 25 mM KCl, 0.1 mM EDTA, 1 mM DTT, 2 mM MgCl2, 0.2% NP40; on ice 10-15 min; 6% TBE gel, 0.5x TBE, 4 C; conditions: protein: recombinant; tags: His; label: Cy3 (end); hairpin, 10 bp stem with AAA loop
T1 sequence: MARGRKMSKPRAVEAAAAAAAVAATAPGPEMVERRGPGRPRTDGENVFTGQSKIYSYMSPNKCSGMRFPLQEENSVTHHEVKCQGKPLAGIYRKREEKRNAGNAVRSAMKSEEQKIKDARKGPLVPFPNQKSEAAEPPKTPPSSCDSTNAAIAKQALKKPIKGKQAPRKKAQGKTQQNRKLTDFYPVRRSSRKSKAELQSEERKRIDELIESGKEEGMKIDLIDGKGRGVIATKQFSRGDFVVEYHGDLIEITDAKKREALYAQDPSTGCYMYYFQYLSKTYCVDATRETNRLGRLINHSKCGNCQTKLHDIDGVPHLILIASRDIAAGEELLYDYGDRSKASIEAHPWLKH

[1] = molecular target: T2, full-length recombinant PARP1 protein (UniProt P09874 1-1014); assay: pull-down; GST-SET8 fusions on glutathione-Sepharose beads, full-length recombinant PARP1 in solution; 1X PBS with 0.1% Triton X-100, 100 µg/ml BSA, 4 °C, 1 h; washes with 1% Triton X-100; western blot with anti-PARP1; conditions: both partners purified
T2 construct: PARP1, full-length recombinant protein bought from Active Motif; also called purified PARP1; PARP1 recombinant enzyme; source: bought: Active Motif (# 81037)
T2 sequence (P09874 whole entry, the tested form may be a part): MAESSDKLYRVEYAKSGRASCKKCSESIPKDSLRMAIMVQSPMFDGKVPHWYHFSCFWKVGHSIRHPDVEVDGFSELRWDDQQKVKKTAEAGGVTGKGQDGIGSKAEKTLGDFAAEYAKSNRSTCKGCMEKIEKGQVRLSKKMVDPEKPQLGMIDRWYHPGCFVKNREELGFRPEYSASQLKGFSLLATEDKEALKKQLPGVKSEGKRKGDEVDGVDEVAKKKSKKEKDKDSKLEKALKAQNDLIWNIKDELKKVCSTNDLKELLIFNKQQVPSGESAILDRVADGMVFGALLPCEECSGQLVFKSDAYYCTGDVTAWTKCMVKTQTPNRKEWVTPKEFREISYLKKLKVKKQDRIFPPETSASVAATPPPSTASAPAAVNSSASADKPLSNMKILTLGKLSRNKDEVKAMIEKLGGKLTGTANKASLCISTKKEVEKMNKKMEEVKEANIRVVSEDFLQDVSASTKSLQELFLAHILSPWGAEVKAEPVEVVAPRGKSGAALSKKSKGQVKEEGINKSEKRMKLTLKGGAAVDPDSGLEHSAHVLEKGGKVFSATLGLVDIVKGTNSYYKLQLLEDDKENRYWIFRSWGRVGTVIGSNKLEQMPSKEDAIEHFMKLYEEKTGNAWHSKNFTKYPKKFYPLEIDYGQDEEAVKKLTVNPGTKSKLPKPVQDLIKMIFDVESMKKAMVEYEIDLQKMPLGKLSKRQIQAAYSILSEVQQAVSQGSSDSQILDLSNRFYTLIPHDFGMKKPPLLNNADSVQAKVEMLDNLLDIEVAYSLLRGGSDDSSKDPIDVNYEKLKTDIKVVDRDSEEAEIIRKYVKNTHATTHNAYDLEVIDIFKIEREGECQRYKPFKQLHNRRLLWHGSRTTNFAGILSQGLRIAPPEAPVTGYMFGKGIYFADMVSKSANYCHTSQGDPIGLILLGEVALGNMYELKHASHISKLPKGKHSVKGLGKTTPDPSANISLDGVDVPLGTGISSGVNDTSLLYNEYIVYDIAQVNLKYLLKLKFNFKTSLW

Binder: GGGAATTCCCAAAGGGAATTCCC (structured_DNA) [EcoRI hairpin oligonucleotide]
Kd (His-SET8): 1.6 ± 0.6 µM

binding result [1]: binds
B1: full-length GST fusion SET8 (GST-SET8 FL) (enzyme, UniProt Q9NQR1-2 1-352, looked up)
chain: T1 sequence
notes: SET8 (KMT5A), full length; printed numbering runs to 352 (fragments 157-352, 175-352); vector pGEX5X.1; source: E. coli ER2566, purified, on glutathione-Sepharose beads

binding result [1]: binds
B2: GST-SET8 disorder domain 80-230 (domain or fragment, UniProt Q9NQR1-2 80-230, looked up)
chain: EVKCQGKPLAGIYRKREEKRNAGNAVRSAMKSEEQKIKDARKGPLVPFPNQKSEAAEPPKTPPSSCDSTNAAIAKQALKKPIKGKQAPRKKAQGKTQQNRKLTDFYPVRRSSRKSKAELQSEERKRIDELIESGKEEGMKIDLIDGKGRGV
notes: SET8 (KMT5A) disorder domain, residues 80-230; printed numbering runs to 352; vector pGEX5X.1; primers in Supplementary File 1; also called GST-SET8 DD; disorder domain (DD); source: E. coli ER2566, purified, on glutathione-Sepharose beads

binding result [1]: binds
B3: GST-SET8 N-terminal 1-98 (domain or fragment, UniProt Q9NQR1-2 1-98, looked up)
chain: MARGRKMSKPRAVEAAAAAAAVAATAPGPEMVERRGPGRPRTDGENVFTGQSKIYSYMSPNKCSGMRFPLQEENSVTHHEVKCQGKPLAGIYRKREEK
notes: SET8 (KMT5A) residues 1-98; vector pGEX5X.1; primers in Supplementary File 1; also called N-terminal 1–98 amino acids; source: E. coli ER2566, purified, on glutathione-Sepharose beads
